Experiment [1] concerns the target T1, human angiotensin AT2 receptor (human, UniProt P50052 1-363).
T1 sequence (looked up): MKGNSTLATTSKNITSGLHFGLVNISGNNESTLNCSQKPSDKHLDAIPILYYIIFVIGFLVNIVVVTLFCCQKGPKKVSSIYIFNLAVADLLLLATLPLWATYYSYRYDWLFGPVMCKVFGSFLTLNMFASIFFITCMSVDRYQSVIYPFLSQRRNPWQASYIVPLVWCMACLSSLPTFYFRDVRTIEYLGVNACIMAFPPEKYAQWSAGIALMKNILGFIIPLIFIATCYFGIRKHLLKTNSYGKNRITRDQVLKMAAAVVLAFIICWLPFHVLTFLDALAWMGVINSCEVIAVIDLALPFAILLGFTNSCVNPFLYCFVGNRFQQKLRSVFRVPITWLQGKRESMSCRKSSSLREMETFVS

In experiment [2] the target is T1, human angiotensin AT2 receptor. This is another data set of the same source.
Experiment [3] shares this target. As to the method: (§1) Compounds were screened at 10 μM. […] Biochem. Biophys. Res. Comm.
This is another data set of the same source.

A further experiment has as its target Cholecystokinin. Nature of the experiment: receptor panel ligand-binding screen, FPAh at 10 µM.
The next experiment deals with Estrogen ERa. Described as above.
A further experiment addresses Glutamate AMPA. Described as above.
The next experiment deals with Serotonin 5-HT 2a. The description is as above.
In experiment [4] the target is T2, Thyrotropin Releasing Hormone.
T2 sequence (P34981 whole entry, species assumed, looked up): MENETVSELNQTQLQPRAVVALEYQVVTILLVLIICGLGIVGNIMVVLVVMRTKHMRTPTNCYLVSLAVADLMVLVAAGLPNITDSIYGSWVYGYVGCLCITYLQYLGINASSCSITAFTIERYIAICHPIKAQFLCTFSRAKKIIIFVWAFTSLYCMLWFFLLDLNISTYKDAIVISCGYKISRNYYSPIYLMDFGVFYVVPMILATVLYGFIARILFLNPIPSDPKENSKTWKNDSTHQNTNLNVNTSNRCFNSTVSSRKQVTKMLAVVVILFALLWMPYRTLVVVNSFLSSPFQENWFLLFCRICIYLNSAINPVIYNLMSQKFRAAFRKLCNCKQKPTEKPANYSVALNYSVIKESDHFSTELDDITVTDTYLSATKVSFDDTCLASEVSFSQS
The description is as above.

A further experiment has as its target T3, Bradykinin B1.
T3 sequence (P46663 whole entry, species assumed, looked up): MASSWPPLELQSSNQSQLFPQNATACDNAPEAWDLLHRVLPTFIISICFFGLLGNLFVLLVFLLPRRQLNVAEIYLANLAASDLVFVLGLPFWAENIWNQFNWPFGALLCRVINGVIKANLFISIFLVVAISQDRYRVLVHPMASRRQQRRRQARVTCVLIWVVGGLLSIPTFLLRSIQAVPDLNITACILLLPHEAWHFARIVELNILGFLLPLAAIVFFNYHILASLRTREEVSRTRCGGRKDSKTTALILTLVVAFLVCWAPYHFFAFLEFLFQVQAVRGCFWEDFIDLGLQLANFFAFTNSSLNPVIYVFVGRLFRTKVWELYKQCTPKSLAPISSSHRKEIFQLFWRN
The experiment is described as above.

Experiment [5] deals with Inositol Triphosphate IP3. Described as above.
The next experiment deals with Potassium Channel [Ka]. The description is as above.
The target in experiment [6] is Vascular endothelial growth factor. Described as above.
Experiment [7] concerns the target T1, human angiotensin AT2 receptor. Nature of the experiment: [125I]CGP-42112A binding to membranes of HeLa cells expressing human AT2 receptor. The method, then: as §1
Experiment [8] concerns the target T4, human angiotensin AT2 receptor (human) (UniProt P50052).
T4 sequence (looked up): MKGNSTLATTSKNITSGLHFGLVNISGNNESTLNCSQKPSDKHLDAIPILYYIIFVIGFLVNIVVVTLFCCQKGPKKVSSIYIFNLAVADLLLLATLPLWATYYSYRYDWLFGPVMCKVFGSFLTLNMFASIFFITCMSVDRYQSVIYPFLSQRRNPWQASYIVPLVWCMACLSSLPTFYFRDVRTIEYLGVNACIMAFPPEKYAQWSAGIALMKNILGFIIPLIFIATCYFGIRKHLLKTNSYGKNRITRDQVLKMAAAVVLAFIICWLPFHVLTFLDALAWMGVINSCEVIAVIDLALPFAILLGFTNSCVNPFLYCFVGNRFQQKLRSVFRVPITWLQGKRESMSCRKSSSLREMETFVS

Where two headings read alike, the source gives them in different places. Square brackets hold non-standard residues; d marks the D form. Ends that are not written are not given here. * marks the point of attachment. 2Thi = N[C@@H](Cc1cccs1)C(=O)O; Nicotinoyl = O=C(c1cccnc1)*

From patent US20030228371A1 (STASYS TECHNOLOGIES, published 2003) come the findings set out here.

Chain of Serotonin 5-HT 2a (P28223 whole entry): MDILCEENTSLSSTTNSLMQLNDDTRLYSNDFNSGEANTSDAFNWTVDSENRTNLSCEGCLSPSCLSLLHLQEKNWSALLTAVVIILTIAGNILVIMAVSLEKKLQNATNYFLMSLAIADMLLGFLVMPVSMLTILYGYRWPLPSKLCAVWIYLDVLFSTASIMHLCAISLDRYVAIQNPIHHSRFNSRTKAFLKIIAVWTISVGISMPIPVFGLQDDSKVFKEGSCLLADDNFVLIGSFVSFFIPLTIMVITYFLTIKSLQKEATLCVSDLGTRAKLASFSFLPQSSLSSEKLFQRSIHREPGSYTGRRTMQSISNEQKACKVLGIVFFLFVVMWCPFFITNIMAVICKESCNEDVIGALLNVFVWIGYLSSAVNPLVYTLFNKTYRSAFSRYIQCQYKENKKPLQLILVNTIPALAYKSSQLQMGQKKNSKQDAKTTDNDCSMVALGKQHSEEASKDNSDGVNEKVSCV

On to “N-Admantaneacetyl-DArg0-Hyp3, Thi5,8,DPhe7] Bradykinin (peptide)”, for which, in [1], the % Inhibition ATII receptor stood at 61%. What is called IC50 is the midpoint of a concentration-inhibition curve. Read a low IC50 as greater potency in that assay. For orientation: Ki means the dissociation constant of the complex between target and ligand, obtained from inhibition or displacement. Read a high Ki as a looser hold on the target. Turning to Saralasin (peptide), in experiment [2], the IC50 came to 0.28 nM, the Ki turned out to be 0.091 nM and the nH came to 0.9. For the molecule [Lys0-Hyp3] Bradykinin (peptide), the % Inhibition ATII receptor in experiment [1] came out at 13%. Take Bradykinin (1-3) (peptide): in experiment [1], the % Inhibition ATII receptor was -2%. Same read-out and setting: as for “N-Admantanecarbonyl-DArg0-Hyp3, Thi5,8, DPhe7] Bradykinin (peptide)”, the figure is 63%. Consider XRPXGXSXXR (D-Arg at 0; Hyp at 3; Thi at 5; D-Tic at 7; Oic at 8 (bradykinin numbering)) [Hoe 140], for which the % Inhibition ATII receptor in [1] was 29%. Turning to MKRPPGFSPFR (also called VP049) [Met-Lys0] Bradykinin], in experiment [3], the “% Inhibition ATII receptor” value was determined as 38%. Consider ADSGEGDFLAEGGGVR [human form of Fibrinopeptide-A], for which the % inhibited (ligand-receptor binding) with Cholecystokinin turned out to be 33%; in the experiment with Estrogen ERa, 33%; in experiment [4], 23%; in the experiment with Bradykinin B1, 24%; in experiment [5], 33%; with Potassium Channel [Ka] it was 25%. Besides, the % stimulated (ligand-receptor binding) turned out to be 30% with Glutamate AMPA, 21% with Serotonin 5-HT 2a and 22% in [6]. Take XRPXGXSXXR (D-Arg at 0; Hyp at 3; Thi at 5; D-Igl at 7; Oic at 8 (bradykinin numbering)) [B9340]: in [1], the % Inhibition ATII receptor came to 35%. The same measure, in the same setting: as for XRPXGXSXXR (D-Arg at 0; Hyp at 3; Igl at 5; D-Igl at 7; Oic at 8 (bradykinin numbering)) [B9430], the figure is 70%; as for PPGFSP [Bradykinin (2-7)], -6%.

In the case of ISRPPGFSPFR (also called VP054) [Ile-Ser0]-Bradykinin], the “% Inhibition ATII receptor” value in experiment [3] was 29%. On to RPPGF [Bradykinin (1-5)], for which the % Inhibition ATII receptor in [1] worked out at 1%.

As to KRPPGFSPL (also called VP041) [Lys-(Des-Arg9, Leu8)-Bradykinin], the “% Inhibition ATII receptor” value in experiment [3] came out at 98%.

B1: CGP-42112A (peptide)
peptide: Nicotinoyl-YKHPI-OH
modifications: not fully specified (residue 2)
notes: Modified peptide ligand of the AT2 receptor and radioligand of the assay; also called CPG42112A
A word on the Kd: it is the concentration at which binding is half-saturated. A low value points to a tighter complex. On to B1, for which binding in [7] was put at a Kd of 0.012 nM. Also, in experiment [3], the IC50 was 0.024 nM, the inhibitory constant (Ki) was 7.8 pM and the nH amounted to 1.1.

As to RPPGFS [Bradykinin (1-6)], in experiment [1], the % Inhibition ATII receptor was -12%. With RPPGFSPYR [[Tyr8] Bradykinin], in experiment [8], the % Inhibition ATII receptor was -1%. For RPPGFSP (also called VP060) [Bradykinin (1-7)], the “% Inhibition ATII receptor” value in experiment [3] came out at 55%. Turning to KRPPGFSPFR (also called VP048) [[Lys0] Bradykinin], in experiment [3], the “% Inhibition ATII receptor” value came out at 29%. Still for that read-out and setting: as for KRPAGFSPFR (also called VP050) [Lys0-Ala3] Bradykinin], the figure is 18%. The same measure, in the same setting: as for YRPPGFSPFR (also called VP051) [[Tyr0] Bradykinin], the figure is 33%. RPPG[2Thi]S[dF][2Thi]R [[Thi5,8,DPhe7] Bradykinin]: in experiment [1], the % Inhibition ATII receptor amounted to 53%.

RPPGYSPFR (also called VP053) [Tyr5] Bradykinin]: in experiment [3], the “% Inhibition ATII receptor” value amounted to 13%. As for RPPGFS[dF]FR [[DPhe7] Bradykinin], in experiment [1], the % Inhibition ATII receptor came out at 9%. Turning to PPGFSPFR [Bradykinin (2-9)], the % Inhibition ATII receptor in [1] was -13%.
